In patent US20230407373A1 (priority 2020, published 2023):
Like-named read-outs stand apart in the source and are kept apart here.

Tests used:
Assay type in all cases: binding
HCoV-OC43 gRNA and sgRNA = conditions: for target (unweighted spectral count, OC43 Probe II capture): type n_36_v, FDR<10%; for target (unweighted spectral count, OC43 Probe II capture) / target (unweighted spectral count): tested against no-probe control; for target (unweighted spectral count, OC43 Probe II) / background (unweighted spectral count, no-probe control): type n_48_v, 48 hpi; for target (unweighted spectral count, OC43 Probe II): OC43 Probe II capture on infected cells; for background (unweighted spectral count, no-probe control): no-probe control on infected cells; for target (unweighted spectral count): OC43 Probe II, infected cells
[1] = tested on: SARS-CoV-2 gRNA and sgRNAs; conditions: for target (unweighted spectral count of the protein in the RNP capture experiment): LC-MS/MS label-free quantification, probe pool not given; for back-ground (unweighted spectral count of the protein in the control experiment): protein background of the control (e.g. no-probe) experiment; for target (unweighted spectral count in RNP capture): Probe II capture, LC-MS/MS LFQ; for background (unweighted spectral count in control): no-probe control pull-down, used as background for Probe II
gRNA of HCoV-OC43 = conditions: for target (spectral count) / background (spectral count): type g_36_m, 36 hpi, Probe I; for target (spectral count): HCoV-OC43-infected HCT-8 cells; for background (spectral count): uninfected-probe control; for target (spectral count, OC43 Probe I RNP capture) / background (spectral count, no-probe control): type n_48_v: 48 hours post-infection; for target (spectral count, OC43 Probe I RNP capture): infected cells, unweighted spectral count; for background (spectral count, no-probe control): no-probe control on infected cells
SARS-CoV-2 gRNA = conditions: […]; LC-MS/MS; Probe I sample (first 199 lines of Table 2)

B1: THRAP3: host protein, UniProt Q9Y2W1 (protein, UniProt Q9Y2W1 2-955, looked up)
Thyroid hormone …: SKTNKSKSGSRSSRSRSASRSRSRSFSKSRSRSRSLSRSRKRRLSSRSRSRSYSPAHNRERNHPRVYQNRDFRGHNRGYRRPYYFRGRNRGFYPWGQYNRGGYGNYRSNWQNYRQAYSPRRGRSRSRSPKRRSPSPRSRSHSRNSDKSSSDRSRRSSSSRSSSNHSRVESSKRKSAKEKKSSSKDSRPSQAAGDNQGDEAKEQTFSGGTSQDTKASESSKPWPDATYGTGSASRASAVSELSPRERSPALKSPLQSVVVRRRSPRPSPVPKPSPPLSSTSQMGSTLPSGAGYQSGTHQGQFDHGSGSLSPSKKSPVGKSPPSTGSTYGSSQKEESAASGGAAYTKRYLEEQKTENGKDKEQKQTNTDKEKIKEKGSFSDTGLGDGKMKSDSFAPKTDSEKPFRGSQSPKRYKLRDDFEKKMADFHKEEMDDQDKDKAKGRKESEFDDEPKFMSKVIGANKNQEEEKSGKWEGLVYAPPGKEKQRKTEELEEESFPERSKKEDRGKRSEGGHRGFVPEKNFRVTAYKAVQEKSSSPPPRKTSESRDKLGAKGDFPTGKSSFSITREAQVNVRMDSFDEDLARPSGLLAQERKLCRDLVHSNKKEQEFRSIFQHIQSAQSQRSPSELFAQHIVTIVHHVKEHHFGSSGMTLHERFTKYLKRGTEQEAAKNKKSPEIHRRIDISPSTFRKHGLAHDEMKSPREPGYKAEGKYKDDPVDLRLDIERRKKHKERDLKRGKSRESVDSRDSSHSRERSAEKTEKTHKGSKKQKKHRRARDRSRSSSSSSQSSHSYKAEEYTEETEEREESTTGFDKSRLGTKDFVGPSERGGGRARGTFQFRARGRGWGRGNYSGNNNNNSNNDFQKRNREEEWDPEYTPKSKKYYLHDDREGEGSDKWVSRGRGRGAFPRGRGRFMFRKSSTSPKWAHDKFSGEEGEIEDDESGTENREEKDNIQPTTE
HCoV-OC43 gRNA and sgRNA; 36 hpi
  target (unweighted spectral count, OC43 Probe II capture): 12
HCoV-OC43 gRNA and sgRNA
  target (unweighted spectral count, OC43 Probe II): 13
  background (unweighted spectral count, no-probe control): 2
[1]
  target (unweighted spectral count of the protein in the RNP capture experiment): 6
  back-ground (unweighted spectral count of the protein in the control experiment): 1
gRNA of HCoV-OC43
  target (spectral count): 8
  background (spectral count): 1
  target (spectral count, OC43 Probe I RNP capture): 10
  background (spectral count, no-probe control): 2
SARS-CoV-2 gRNA
  target (unweighted spectral count of the protein in the RNP capture): 7

B2: HNRNPM (protein, UniProt P52272 2-730, looked up)
Heterogeneous nuclear …: AAGVEAAAEVAATEIKMEEESGAPGVPSGNGAPGPKGEGERPAQNEKRKEKNIKRGGNRFEPYANPTKRYRAFITNIPFDVKWQSLKDLVKEKVGEVTYVELLMDAEGKSRGCAVVEFKMEESMKKAAEVLNKHSLSGRPLKVKEDPDGEHARRAMQKVMATTGGMGMGPGGPGMITIPPSILNNPNIPNEIIHALQAGRLGSTVFVANLDYKVGWKKLKEVFSMAGVVVRADILEDKDGKSRGIGTVTFEQSIEAVQAISMFNGQLLFDRPMHVKMDERALPKGDFFPPERPQQLPHGLGGIGMGLGPGGQPIDANHLNKGIGMGNIGPAGMGMEGIGFGINKMGGMEGPFGGGMENMGRFGSGMNMGRINEILSNALKRGEIIAKQGGGGGGGSVPGIERMGPGIDRLGGAGMERMGAGLGHGMDRVGSEIERMGLVMDRMGSVERMGSGIERMGPLGLDHMASSIERMGQTMERIGSGVERMGAGMGFGLERMAAPIDRVGQTIERMGSGVERMGPAIERMGLSMERMVPAGMGAGLERMGPVMDRMATGLERMGANNLERMGLERMGANSLERMGLERMGANSLERMGPAMGPALGAGIERMGLAMGGGGGASFDRAIEMERGNFGGSFAGSFGGAGGHAPGVARKACQIFVRNLPFDFTWKMLKDKFNECGHVLYADIKMENGKSKGCGVVKFESPEVAERACRMMNGMKLSGREIDVRIDRNA
HCoV-OC43 gRNA and sgRNA; 36 hpi
  target (unweighted spectral count, OC43 Probe II capture): 73
HCoV-OC43 gRNA and sgRNA; 12 hpi (type n_12_v)
  target (unweighted spectral count): 22
HCoV-OC43 gRNA and sgRNA; 24 hpi (type n_24_v)
  target (unweighted spectral count): 34
[1]
  target (unweighted spectral count in RNP capture): 53
  background (unweighted spectral count in control): 1
gRNA of HCoV-OC43
  target (spectral count, OC43 Probe I RNP capture): 65
  background (spectral count, no-probe control): 7
SARS-CoV-2 gRNA
  target (unweighted spectral count of the protein in the RNP capture): 71

B3: PSPC1: host protein, UniProt Q8WXF1 (protein, UniProt Q8WXF1 1-523, looked up)
Paraspeckle component 1: MMLRGNLKQVRIEKNPARLRALESAVGESEPAAAAAMALALAGEPAPPAPAPPEDHPDEEMGFTIDIKSFLKPGEKTYTQRCRLFVGNLPTDITEEDFKRLFERYGEPSEVFINRDRGFGFIRLESRTLAEIAKAELDGTILKSRPLRIRFATHGAALTVKNLSPVVSNELLEQAFSQFGPVEKAVVVVDDRGRATGKGFVEFAAKPPARKALERCGDGAFLLTTTPRPVIVEPMEQFDDEDGLPEKLMQKTQQYHKEREQPPRFAQPGTFEFEYASRWKALDEMEKQQREQVDRNIREAKEKLEAEMEAARHEHQLMLMRQDLMRRQEELRRLEELRNQELQKRKQIQLRHEEEHRRREEEMIRHREQEELRRQQEGFKPNYMENREQEMRMGDMGPRGAINMGDAFSPAPAGNQGPPPMMGMNMNNRATIPGPPMGPGPAMGPEGAANMGTPMMPDNGAVHNDRFPQGPPSQMGSPMGSRTGSETPQAPMSGVGPVSGGPGGFGRGSQGGNFEGPNKRRRY
HCoV-OC43 gRNA and sgRNA; 36 hpi
  target (unweighted spectral count, OC43 Probe II capture): 14
HCoV-OC43 gRNA and sgRNA; 12 hpi (type n_12_v)
  target (unweighted spectral count): 4
HCoV-OC43 gRNA and sgRNA; 24 hpi (type n_24_v)
  target (unweighted spectral count): 8
HCoV-OC43 gRNA and sgRNA
  target (unweighted spectral count, OC43 Probe II): 14
  background (unweighted spectral count, no-probe control): 1
HCoV-OC43 gRNA and sgRNA; type s_36_m, HCoV-OC43-infected HCT-8 cells, 36 hpi, Probe II
  target (spectral count): 14
HCoV-OC43 gRNA and sgRNA; type s_36_m, uninfected-probe control, 36 hpi, Probe II
  background (spectral count): 1
[1]
  target (unweighted spectral count in RNP capture): 10
  background (unweighted spectral count in control): 1
gRNA of HCoV-OC43
  target (spectral count): 12
  background (spectral count): 1
  target (spectral count, OC43 Probe I RNP capture): 20
  background (spectral count, no-probe control): 1
SARS-CoV-2 gRNA
  target (unweighted spectral count of the protein in the RNP capture): 7

B4: U2AF2 (protein, UniProt P26368 2-475, looked up)
Splicing factor U2AF 65 kDa …: SDFDEFERQLNENKQERDKENRHRKRSHSRSRSRDRKRRSRSRDRRNRDQRSASRDRRRRSKPLTRGAKEEHGGLIRSPRHEKKKKVRKYWDVPPPGFEHITPMQYKAMQAAGQIPATALLPTMTPDGLAVTPTPVPVVGSQMTRQARRLYVGNIPFGITEEAMMDFFNAQMRLGGLTQAPGNPVLAVQINQDKNFAFLEFRSVDETTQAMAFDGIIFQGQSLKIRRPHDYQPLPGMSENPSVYVPGVVSTVVPDSAHKLFIGGLPNYLNDDQVKELLTSFGPLKAFNLVKDSATGLSKGYAFCEYVDINVTDQAIAGLNGMQLGDKKLLVQRASVGAKNATLVSPPSTINQTPVTLQVPGLMSSQVQMGGHPTEVLCLMNMVLPEELLDDEEYEEIVEDVRDECSKYGLVKSIEIPRPVDGVEVPGCGKIFVEFTSVFDCQKAMQGLTGRKFANRVVVTKYCDPDSYHRRDFW
HCoV-OC43 gRNA and sgRNA; 36 hpi
  target (unweighted spectral count, OC43 Probe II capture): 6
HCoV-OC43 gRNA and sgRNA; 12 hpi (type n_12_v)
  target (unweighted spectral count): 5
HCoV-OC43 gRNA and sgRNA
  target (unweighted spectral count, OC43 Probe II): 12
  background (unweighted spectral count, no-probe control): 1
[1]
  target (unweighted spectral count of the protein in the RNP capture experiment): 6
  back-ground (unweighted spectral count of the protein in the control experiment): 1
gRNA of HCoV-OC43
  target (spectral count, OC43 Probe I RNP capture): 8
  background (spectral count, no-probe control): 1
SARS-CoV-2 gRNA
  target (unweighted spectral count of the protein in the RNP capture): 7
